T1: TNFR1 (Homo sapiens, UniProt P19438)
T1 chain: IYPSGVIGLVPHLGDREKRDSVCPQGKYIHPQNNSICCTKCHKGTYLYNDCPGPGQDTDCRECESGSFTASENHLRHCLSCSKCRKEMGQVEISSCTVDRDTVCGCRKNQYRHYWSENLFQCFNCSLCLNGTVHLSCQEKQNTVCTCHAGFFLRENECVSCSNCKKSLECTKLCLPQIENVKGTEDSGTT


Target: T1, TNFR1
Assay: yeast display SC50

| apparent Kd (screen) | Binder |
| --- | --- |
| 1540 pM | E60S (designed binder) SMEEEVEKAAKEYEKKKKEAIEKHLEKLKAKDKEAAERFLKELEEAAKEYAKDEAKTMSSEEAKRRAKKYKEKVLLSELSEEEQKEIKEAEEKLVRTILKYVEEAAK |
| 1160 pM | S59Q (designed binder) SMEEEVEKAAKEYEKKKKEAIEKHLEKLKAKDKEAAERFLKELEEAAKEYAKDEAKTMQEEEAKRRAKKYKEKVLLSELSEEEQKEIKEAEEKLVRTILKYVEEAAK |
| 593 pM | S59A (designed binder) SMEEEVEKAAKEYEKKKKEAIEKHLEKLKAKDKEAAERFLKELEEAAKEYAKDEAKTMAEEEAKRRAKKYKEKVLLSELSEEEQKEIKEAEEKLVRTILKYVEEAAK |
| 1270 pM | E45W (designed binder) SMEEEVEKAAKEYEKKKKEAIEKHLEKLKAKDKEAAERFLKELEWAAKEYAKDEAKTMSEEEAKRRAKKYKEKVLLSELSEEEQKEIKEAEEKLVRTILKYVEEAAK |
| 2050 pM | E72Q (designed binder) SMEEEVEKAAKEYEKKKKEAIEKHLEKLKAKDKEAAERFLKELEEAAKEYAKDEAKTMSEEEAKRRAKKYKQKVLLSELSEEEQKEIKEAEEKLVRTILKYVEEAAK |
| 3630 pM | V95K (designed binder) SMEEEVEKAAKEYEKKKKEAIEKHLEKLKAKDKEAAERFLKELEEAAKEYAKDEAKTMSEEEAKRRAKKYKEKVLLSELSEEEQKEIKEAEEKLKRTILKYVEEAAK |
| 869 pM | L76M (designed binder) SMEEEVEKAAKEYEKKKKEAIEKHLEKLKAKDKEAAERFLKELEEAAKEYAKDEAKTMSEEEAKRRAKKYKEKVLMSELSEEEQKEIKEAEEKLVRTILKYVEEAAK |
| 1050 pM | E45Q (designed binder) SMEEEVEKAAKEYEKKKKEAIEKHLEKLKAKDKEAAERFLKELEQAAKEYAKDEAKTMSEEEAKRRAKKYKEKVLLSELSEEEQKEIKEAEEKLVRTILKYVEEAAK |
| 490 pM | E103N (designed binder) SMEEEVEKAAKEYEKKKKEAIEKHLEKLKAKDKEAAERFLKELEEAAKEYAKDEAKTMSEEEAKRRAKKYKEKVLLSELSEEEQKEIKEAEEKLVRTILKYVNEAAK |
| 490 pM | K85T (designed binder) SMEEEVEKAAKEYEKKKKEAIEKHLEKLKAKDKEAAERFLKELEEAAKEYAKDEAKTMSEEEAKRRAKKYKEKVLLSELSEEEQTEIKEAEEKLVRTILKYVEEAAK |
| 790 pM | K33I (designed binder) SMEEEVEKAAKEYEKKKKEAIEKHLEKLKAKDIEAAERFLKELEEAAKEYAKDEAKTMSEEEAKRRAKKYKEKVLLSELSEEEQKEIKEAEEKLVRTILKYVEEAAK |
| 1690 pM | T97E (designed binder) SMEEEVEKAAKEYEKKKKEAIEKHLEKLKAKDKEAAERFLKELEEAAKEYAKDEAKTMSEEEAKRRAKKYKEKVLLSELSEEEQKEIKEAEEKLVREILKYVEEAAK |
| 446 pM | E44V (designed binder) SMEEEVEKAAKEYEKKKKEAIEKHLEKLKAKDKEAAERFLKELVEAAKEYAKDEAKTMSEEEAKRRAKKYKEKVLLSELSEEEQKEIKEAEEKLVRTILKYVEEAAK |
| 869 pM | K93H (designed binder) SMEEEVEKAAKEYEKKKKEAIEKHLEKLKAKDKEAAERFLKELEEAAKEYAKDEAKTMSEEEAKRRAKKYKEKVLLSELSEEEQKEIKEAEEHLVRTILKYVEEAAK |
| 490 pM | K48C (designed binder) SMEEEVEKAAKEYEKKKKEAIEKHLEKLKAKDKEAAERFLKELEEAACEYAKDEAKTMSEEEAKRRAKKYKEKVLLSELSEEEQKEIKEAEEKLVRTILKYVEEAAK |
| 12500 pM | E91F (designed binder) SMEEEVEKAAKEYEKKKKEAIEKHLEKLKAKDKEAAERFLKELEEAAKEYAKDEAKTMSEEEAKRRAKKYKEKVLLSELSEEEQKEIKEAFEKLVRTILKYVEEAAK |
| 593 pM | K85R (designed binder) SMEEEVEKAAKEYEKKKKEAIEKHLEKLKAKDKEAAERFLKELEEAAKEYAKDEAKTMSEEEAKRRAKKYKEKVLLSELSEEEQREIKEAEEKLVRTILKYVEEAAK |
| 1160 pM | R38L (designed binder) SMEEEVEKAAKEYEKKKKEAIEKHLEKLKAKDKEAAELFLKELEEAAKEYAKDEAKTMSEEEAKRRAKKYKEKVLLSELSEEEQKEIKEAEEKLVRTILKYVEEAAK |
| 869 pM | L40Y (designed binder) SMEEEVEKAAKEYEKKKKEAIEKHLEKLKAKDKEAAERFYKELEEAAKEYAKDEAKTMSEEEAKRRAKKYKEKVLLSELSEEEQKEIKEAEEKLVRTILKYVEEAAK |
| 3300 pM | E83P (designed binder) SMEEEVEKAAKEYEKKKKEAIEKHLEKLKAKDKEAAERFLKELEEAAKEYAKDEAKTMSEEEAKRRAKKYKEKVLLSELSEEPQKEIKEAEEKLVRTILKYVEEAAK |

The next lines start with the binder.

| Binder | apparent Kd (screen) |
| --- | --- |
| K31F (designed binder) SMEEEVEKAAKEYEKKKKEAIEKHLEKLKAFDKEAAERFLKELEEAAKEYAKDEAKTMSEEEAKRRAKKYKEKVLLSELSEEEQKEIKEAEEKLVRTILKYVEEAAK | 446 pM |
| E3T (designed binder) SMTEEVEKAAKEYEKKKKEAIEKHLEKLKAKDKEAAERFLKELEEAAKEYAKDEAKTMSEEEAKRRAKKYKEKVLLSELSEEEQKEIKEAEEKLVRTILKYVEEAAK | 1400 pM |
| L28T (designed binder) SMEEEVEKAAKEYEKKKKEAIEKHLEKTKAKDKEAAERFLKELEEAAKEYAKDEAKTMSEEEAKRRAKKYKEKVLLSELSEEEQKEIKEAEEKLVRTILKYVEEAAK | 790 pM |
| E5T (designed binder) SMEETVEKAAKEYEKKKKEAIEKHLEKLKAKDKEAAERFLKELEEAAKEYAKDEAKTMSEEEAKRRAKKYKEKVLLSELSEEEQKEIKEAEEKLVRTILKYVEEAAK | 446 pM |
| E12K (designed binder) SMEEEVEKAAKKYEKKKKEAIEKHLEKLKAKDKEAAERFLKELEEAAKEYAKDEAKTMSEEEAKRRAKKYKEKVLLSELSEEEQKEIKEAEEKLVRTILKYVEEAAK | 446 pM |
| E26H (designed binder) SMEEEVEKAAKEYEKKKKEAIEKHLHKLKAKDKEAAERFLKELEEAAKEYAKDEAKTMSEEEAKRRAKKYKEKVLLSELSEEEQKEIKEAEEKLVRTILKYVEEAAK | 539 pM |
| K23M (designed binder) SMEEEVEKAAKEYEKKKKEAIEMHLEKLKAKDKEAAERFLKELEEAAKEYAKDEAKTMSEEEAKRRAKKYKEKVLLSELSEEEQKEIKEAEEKLVRTILKYVEEAAK | 869 pM |
| K11S (designed binder) SMEEEVEKAASEYEKKKKEAIEKHLEKLKAKDKEAAERFLKELEEAAKEYAKDEAKTMSEEEAKRRAKKYKEKVLLSELSEEEQKEIKEAEEKLVRTILKYVEEAAK | 490 pM |
| K29R (designed binder) SMEEEVEKAAKEYEKKKKEAIEKHLEKLRAKDKEAAERFLKELEEAAKEYAKDEAKTMSEEEAKRRAKKYKEKVLLSELSEEEQKEIKEAEEKLVRTILKYVEEAAK | 539 pM |
| K17P (designed binder) SMEEEVEKAAKEYEKKPKEAIEKHLEKLKAKDKEAAERFLKELEEAAKEYAKDEAKTMSEEEAKRRAKKYKEKVLLSELSEEEQKEIKEAEEKLVRTILKYVEEAAK | 22200 pM |
| A20I (designed binder) SMEEEVEKAAKEYEKKKKEIIEKHLEKLKAKDKEAAERFLKELEEAAKEYAKDEAKTMSEEEAKRRAKKYKEKVLLSELSEEEQKEIKEAEEKLVRTILKYVEEAAK | 539 pM |
| L25G (designed binder) SMEEEVEKAAKEYEKKKKEAIEKHGEKLKAKDKEAAERFLKELEEAAKEYAKDEAKTMSEEEAKRRAKKYKEKVLLSELSEEEQKEIKEAEEKLVRTILKYVEEAAK | 1050 pM |
| H24R (designed binder) SMEEEVEKAAKEYEKKKKEAIEKRLEKLKAKDKEAAERFLKELEEAAKEYAKDEAKTMSEEEAKRRAKKYKEKVLLSELSEEEQKEIKEAEEKLVRTILKYVEEAAK | 1050 pM |
| E22H (designed binder) SMEEEVEKAAKEYEKKKKEAIHKHLEKLKAKDKEAAERFLKELEEAAKEYAKDEAKTMSEEEAKRRAKKYKEKVLLSELSEEEQKEIKEAEEKLVRTILKYVEEAAK | 539 pM |
| E7I (designed binder) SMEEEVIKAAKEYEKKKKEAIEKHLEKLKAKDKEAAERFLKELEEAAKEYAKDEAKTMSEEEAKRRAKKYKEKVLLSELSEEEQKEIKEAEEKLVRTILKYVEEAAK | 26900 pM |
